Five molecules from publication PMC10201443, “Site-directed biochemical analyses reveal that the switchable C-terminus of Rpc31 contributes to RNA polymerase III transcription initiation” (Nucleic Acids Research, 2022) can be followed below.

The chains are these.
B3: Full-length Rpc34 protein with an N-terminal V5 epitope tag, Alexa 647-labeled (natural protein)
chain: MSGMIENGLQLSDNAKTLHSQMMSKGIGALFTQQELQKQMGIGSLTDLMSIVQELLDKNLIKLVKQNDELKFQGVLESEAQKKATMSAEEALVYSYIEASGREGIWSKTIKARTNLHQHVVLKCLKSLESQRYVKSVKSVKFPTRKIYMLYSLQPSVDITGGPWFTDGELDIEFINSLLTIVWRFISENTFPNGFKNFENGPKKNVFYAPNVKNYSTTQEILEFITAAQVANVELTPSNIRSLCEVLVYDDKLEKVTHDCYRVTLESILQMNQGEGEPEAGNKALEDEEEFSIFNYFKMFPASKHDKEVVYFDEWTI
modifications: Alexa Fluor 647 NHS Ester label (labeling efficiency ~0.8)

Test [1] concerns the target B3. Briefly: MST.
Test [2] addresses T1, Rpc31(aa 121–251)_Flag_ΔS151-G164 (S. cerevisiae, UniProt P17890 121-251, ΔS151-G164).
T1 sequence: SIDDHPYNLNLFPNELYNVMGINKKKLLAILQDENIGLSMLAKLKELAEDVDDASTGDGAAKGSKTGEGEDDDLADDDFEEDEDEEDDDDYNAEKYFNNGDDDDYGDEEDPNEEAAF
The test is described as follows: MST.

The target of test [3] is T2, Full-length Rpc34 protein with an N-terminal V5 epitope tag, Alexa 647-labeled (S. cerevisiae, UniProt P32910 1-317, Alexa Fluor 647 NHS Ester label (labeling efficiency ~0.8)).
T2 construct: Rpc34 of S. cerevisiae, full-length protein; also called Alexa647-labeled Rpc34; fluorescently-labeled Rpc34 protein; source: E. coli BL21 (DE3) RIL, purified (Ni-Sepharose, SUMO tag removed with Ulp1, second Ni-Sepharose passage)
T2 sequence (looked up): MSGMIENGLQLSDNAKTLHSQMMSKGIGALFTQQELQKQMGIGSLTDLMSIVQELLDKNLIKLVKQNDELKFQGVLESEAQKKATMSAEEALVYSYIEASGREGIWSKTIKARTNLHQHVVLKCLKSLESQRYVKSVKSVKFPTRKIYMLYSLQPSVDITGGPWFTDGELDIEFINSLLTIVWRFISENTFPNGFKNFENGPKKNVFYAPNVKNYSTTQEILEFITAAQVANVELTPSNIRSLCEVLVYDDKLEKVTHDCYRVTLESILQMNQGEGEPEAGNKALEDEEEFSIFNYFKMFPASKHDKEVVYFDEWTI
Briefly: MST; Alexa647-labeled Rpc34 constant at 5 nM, unlabeled Rpc31 peptides titrated (WT 1.16 μM to 0.000035 μM); 5 mM sodium phosphate pH 8.0, 0.05% Tween 20; 25°C; MST-on time 5 s; three independent measurements. The note with it: both partners purified.

B1: Rpc31(121-251)-Flag_ΔL165-V185 (protein)
chain: SIDDHPYNLNLFPNELYNVMGINKKKLLAISKFNNADDVFTGTGDDASTGDGAAKGSKTGEGEDDDLADDDFEEDEDEEDDDDYNAEKYFNNGDDDDYGDEEDPNEEAAF
In general, Kd refers to the free concentration of one partner at which half of the binding sites on the other are occupied at equilibrium, for simple one-to-one binding. A higher Kd goes with a looser complex. B1 came in with a Kd in test [1] of 1.2 µM.

B2: Rpc31(121-251)-Flag_ΔG141-I150 (protein)
chain: SIDDHPYNLNLFPNELYNVMSKFNNADDVFTGTGLQDENIGLSMLAKLKELAEDVDDASTGDGAAKGSKTGEGEDDDLADDDFEEDEDEEDDDDYNAEKYFNNGDDDDYGDEEDPNEEAAF
B2: the affinity in test [1], expressed as Kd, was 4.4 µM.

In the case of B3, the Kd in test [2] worked out at 6.1 µM.

B4: Rpc31(aa 121–251)_Flag (domain or fragment, S. cerevisiae, UniProt P17890 121-251, looked up)
chain: SIDDHPYNLNLFPNELYNVMGINKKKLLAISKFNNADDVFTGTGLQDENIGLSMLAKLKELAEDVDDASTGDGAAKGSKTGEGEDDDLADDDFEEDEDEEDDDDYNAEKYFNNGDDDDYGDEEDPNEEAAF
notes: Rpc31 of S. cerevisiae, C-terminal aa 121-251; also called Rpc31 C-terminal Ser121-Phe251 peptide; Rpc31 (aa 121–251) peptide; source: E. coli BL21 (DE3) RIL, purified (Ni-Sepharose, SUMO tag removed with Ulp1, second Ni-Sepharose passage, Source15Q); not shown: FLAG, C-terminal, kept
Take B4: the affinity in test [3], expressed as Kd, was 0.883 ± 0.339 µM.

B5: Rpc31(aa 121–251)_Flag_E183K (domain or fragment, S. cerevisiae, UniProt P17890 121-251, looked up)
chain: SIDDHPYNLNLFPNELYNVMGINKKKLLAISKFNNADDVFTGTGLQDENIGLSMLAKLKELAKDVDDASTGDGAAKGSKTGEGEDDDLADDDFEEDEDEEDDDDYNAEKYFNNGDDDDYGDEEDPNEEAAF
notes: Rpc31 of S. cerevisiae, C-terminal aa 121-251 with E183K; the methods describe only the wild-type construct; also called Rpc31 peptide with a Glu183Lys (E183K) point mutation; source: E. coli, recombinantly expressed and purified; not shown: FLAG, C-terminal, kept
For the molecule B5, in test [3], the Kd stood at 8.5 ± 5.6 µM.
